In assay [1] the target is T1, mouse EL (mouse, UniProt Q9WVG5 21-500).
T1 construct: Heparin extract
T1 sequence (looked up): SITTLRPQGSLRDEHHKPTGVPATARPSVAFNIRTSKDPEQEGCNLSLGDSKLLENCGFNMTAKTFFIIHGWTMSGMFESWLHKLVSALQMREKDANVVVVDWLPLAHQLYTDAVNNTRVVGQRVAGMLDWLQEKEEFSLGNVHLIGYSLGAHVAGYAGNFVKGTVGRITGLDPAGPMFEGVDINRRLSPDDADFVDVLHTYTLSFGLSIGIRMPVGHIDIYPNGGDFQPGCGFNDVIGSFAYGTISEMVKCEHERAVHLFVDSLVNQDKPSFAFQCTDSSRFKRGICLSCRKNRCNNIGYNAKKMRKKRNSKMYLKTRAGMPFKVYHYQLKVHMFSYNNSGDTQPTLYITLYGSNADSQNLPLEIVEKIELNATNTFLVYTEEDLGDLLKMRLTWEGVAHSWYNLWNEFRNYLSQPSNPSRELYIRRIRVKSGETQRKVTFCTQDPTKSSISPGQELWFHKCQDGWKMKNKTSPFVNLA
In words: Biacore; EL captured by anti-C2-tag Ab; bivalent fit. Here is the method: (§1) The binding affinities of anti-EL antibodies were measured using Biacore. […] Then, anti-EL humanized antibodies were added and the binding affinities were calculated by bivalent fitting of BIAevaluation software.
On the technique in general: SPR reads the build-up and loss of mass on a sensor chip optically.

In assay [2] the target is T2, baboon EL (baboon).
T2 construct: Heparin extract
The description is as above. Here is the method:
as §1

In assay [3] the target is T1, mouse EL. In words: cell-based or functional assay.
For assay [4], the target named is T2, baboon EL. The experiment in a line: cell-based or functional assay.
Assay [5] addresses T1, mouse EL. In words: Biacore (as for the other anti-EL antibodies).
Assay [6] concerns the target T3, human [1-305]-mouse chimeric EL (human; mouse, UniProt Q9WVG5 306-500).
T3 construct: Heparin extract, captured or detected by an anti-C2-tag antibody; also called human-mouse chimeric EL
T3 sequence: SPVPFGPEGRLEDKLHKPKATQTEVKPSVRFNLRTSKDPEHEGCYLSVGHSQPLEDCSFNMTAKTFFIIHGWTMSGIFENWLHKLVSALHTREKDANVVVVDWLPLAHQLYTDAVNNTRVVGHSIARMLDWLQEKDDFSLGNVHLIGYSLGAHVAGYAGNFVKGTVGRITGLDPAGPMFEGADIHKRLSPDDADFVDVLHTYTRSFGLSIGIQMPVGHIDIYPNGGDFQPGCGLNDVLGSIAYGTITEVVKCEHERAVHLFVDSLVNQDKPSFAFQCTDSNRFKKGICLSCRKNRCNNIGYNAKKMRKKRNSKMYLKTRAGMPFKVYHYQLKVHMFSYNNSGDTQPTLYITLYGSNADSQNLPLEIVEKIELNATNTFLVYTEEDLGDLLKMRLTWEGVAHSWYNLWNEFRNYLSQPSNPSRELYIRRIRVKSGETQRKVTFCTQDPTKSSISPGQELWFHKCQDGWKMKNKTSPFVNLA
In words: Biacore (as for the other anti-EL antibodies).

Assay [7] concerns the target T2, baboon EL. The experiment in a line: Biacore (as for the other anti-EL antibodies).
In assay [8] the target is rabbit EL (rabbit). The experiment in a line: cell-based or functional assay.
Assay [9] deals with T1, mouse EL. In words: cell-based or functional assay. The source holds these as a separate data set.
Assay [10] addresses T3, human [1-305]-mouse chimeric EL. In words: cell-based or functional assay.
For assay [11], the target named is T2, baboon EL. The experiment in a line: cell-based or functional assay. The source holds these as a separate data set.
Assay [12] deals with T3, human [1-305]-mouse chimeric EL. In words: ELISA: antibody captured on anti-mouse IgG-Fc plate, EL heparin extract added, detection with biotin anti-C2-tag antibody and HRP-streptavidin, A450. (In general: ELISA stands for enzyme-linked immunosorbent assay.)
For assay [13], the target named is T2, baboon EL. Described as above.
The target of assay [14] is T4, Chimeric EL [187-500] (mouse;human).
T4 construct: construct not described further; Used as heparin extract and detected through anti-C2-tag antibody; also called human (187-500) mouse chimera EL
The description is as above.

Where two headings read alike, the source gives them in different places.

B1: h16F6-S1 (antibody, V domains shown)
VH: QVQLVQSGAEVKKPGASVKVSCKASGYTFTTYWIAWVRQAPGQGLEWMGEILPGSAKTKYNKKFKGRVTMTRDTSTSTVYMELSSLRSEDTAVYYCAVYDYGADYWGQGTTVTVSS
VL: DIQMTQSPSSLSASVGDRVTITCKASQDVYTAVAWYQQKPGKSPKLLIYSASYRFTGVPSRFSGSGSGTDFTLTISSLQPEDFATYYCQQHYSIPRTFGGGTKVEIK
notes: humanized
One may read the koff as the rate constant with which the complex falls apart. Low values mean a long-lived complex, high ones a short-lived complex. The kon is the second-order rate constant of association. Low values mean slow association, high ones fast association. Turning to B1, in assay [1], the Kd amounted to 0.16 nM, the koff was 0.00019 s⁻¹ and the kon is 1.2e+06 M⁻¹ s⁻¹. In assay [2], the Kd amounted to 0.57 nM, the koff is 0.00074 s⁻¹ and the kon was 1.3e+06 M⁻¹ s⁻¹. Also, the “Neutralizing activity IC50” value in assay [3] was 3.1 nM. Besides, the “Neutralizing activity IC50” value in assay [4] stood at 2.6 nM.

B2: 16F6 (antibody, V domains shown)
VH: QVQLQQSGAELMKPGASVKISCKATGYTFSTYWIAWVKQRPGHGLEWIGEILPGSAKTKYNKKFKGKATFTADTSSNTAYMQLSSLTSEDSAVYYCAVYDYGADYWGQGTSVTVSS
VL: DIVMTQSHKFMSTSVGDRVSITCKASQDVYTAVAWYQQKPGQSPKLLIYSASYRFTGVPDRFTGSGAGTEFTFTINSVQAEDLAVYYCQQHYSIPRTFGGGTKLEIK
notes: mouse IgG1 raised in EL knock-out mice; not tied one by one
Usually EC50 (read off the curve) stands for the concentration that produces a half-maximal response. Lower therefore signals an effect from little substance. With B2, the Kd is 0.68 nM in assay [5], 14 nM in assay [6] and 0.42 nM in assay [7]. Moreover, the koff was 0.00015 s⁻¹ in [5], 0.004 s⁻¹ in assay [6] and 0.0001 s⁻¹ in assay [7]. Also, the kon in [5] is 220000 M⁻¹ s⁻¹; in assay [6], 330000 M⁻¹ s⁻¹; in [7] it was 240000 M⁻¹ s⁻¹. For the same molecule, the “Neutralizing activity IC50” value in [8] was determined as 2.3 nM; in assay [9] it was 2.5 nM; in assay [10], 4 nM; in assay [11], 2.8 nM. Further, the results for the “EC50 (read off the curve)” value in assay [12], in assay [13] and in assay [14] were approximately 0.002 µg/mL, approximately 0.02 µg/mL and approximately 0.02 µg/mL, respectively.

(Values after patent US20200071424A1 (SHIONOGI, published 2020).)
